Assay [1] addresses CD20 (human) (UniProt P11836). Kind of assay: cell-based or functional assay.
Assay [2] concerns the target CD20 (human) (UniProt P11836). The assay can be described thus: Scatchard analysis, cold antibody against 125I-2H7.v16 on WIL2-S cells.

Chain of CD20 (human) (P11836 whole entry): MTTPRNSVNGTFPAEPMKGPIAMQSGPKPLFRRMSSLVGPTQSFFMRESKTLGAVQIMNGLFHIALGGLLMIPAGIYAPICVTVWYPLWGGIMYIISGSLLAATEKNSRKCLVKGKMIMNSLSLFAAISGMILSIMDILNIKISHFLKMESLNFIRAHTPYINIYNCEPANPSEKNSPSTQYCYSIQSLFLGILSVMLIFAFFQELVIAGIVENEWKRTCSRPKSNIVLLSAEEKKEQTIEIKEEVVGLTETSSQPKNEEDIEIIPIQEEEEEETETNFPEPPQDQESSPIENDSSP

One may read the Kd as the constant that tells how readily two partners part at equilibrium. Low readings indicate higher affinity, high ones lower affinity. Take Rituxan (rituximab) (antibody): in the assay with CD20 (human) [1], the ADCC on WIL2-S cells, EC50(variant)/EC50(2H7.v16) turned out to be 5.3; the ADCC on WIL2-S cells, EC50(variant)/EC50(Rituxan) came to 1; the CDC on WIL2-S cells, EC50(variant)/EC50(Rituxan) worked out at 1; the fraction of Annexin V stained Ramos cells at 10 nM crosslinked antibody was 16.5%. Moreover, in the assay with CD20 (human) [1], the fraction of doubly labeled (Annexin V and propidium iodide) Ramos cells at 10 nM was found to be 38%; the live Ramos cells counted per 10 s at 10 nM (cells per 10 s) was determined as 3100. The Kd with CD20 (human) [2] was determined as 0.99 nM.

Source of the values: patent US20060024300A1.
